# Numbering of substitutions follows the chain as printed. Names may count otherwise.
# T1: mouse FcRn (Sino Biological Cat. No. CT029-M08H) (mouse, UniProt Q61559 22-297; P01887 21-119)
# T1 construct: Bought protein, captured on an anti-histidine chip
# T1 sequence (looked up): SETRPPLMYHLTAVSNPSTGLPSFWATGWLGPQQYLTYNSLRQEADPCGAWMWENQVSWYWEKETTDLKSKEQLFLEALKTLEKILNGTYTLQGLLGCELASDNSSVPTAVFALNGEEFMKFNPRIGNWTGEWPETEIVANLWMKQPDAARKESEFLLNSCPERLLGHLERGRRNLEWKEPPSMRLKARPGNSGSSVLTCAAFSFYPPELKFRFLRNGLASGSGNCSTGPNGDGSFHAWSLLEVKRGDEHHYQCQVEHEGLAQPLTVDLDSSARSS
# T1 sequence (b2m, looked up): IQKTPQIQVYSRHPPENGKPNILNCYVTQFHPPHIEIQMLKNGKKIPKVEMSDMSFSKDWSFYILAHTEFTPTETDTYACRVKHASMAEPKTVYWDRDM
# B1: anti-CD20 (rituximab) human IgG1 L234Q/L235A/G236R (antibody)
# heavy: not shown
# light: QIVLSQSPAILSASPGEKVTMTCRASSSVSYIHWFQQKPGSSPKPWIYATSNLASGVPVRFSGSGSGTSYSLTISRVEAEDAATYYCQQWTSNPPTFGGGTKLEIKRTVAAPSVFIFPPSDEQLKSGTASVVCLLNNFYPREAKVQWKVDNALQSGNSQESVTEQDSKDSTYSLSSTLTLSKADYEKHKVYACEVTHQGLSSPVTKSFNRGEC
# notes: EU numbering; also called 2-27; copies: 2 + 2
# B2: anti-CD20 (rituximab) human IgG1 L234R/L235R/G236R (antibody)
# heavy: QVQLQQPGAELVKPGASVKMSCKASGYTFTSYNMHWVKQTPGRGLEWIGAIYPGNGDTSYNQKFKGKATLTADKSSSTAYMQLSSLTSEDSAVYYCARSTYYGGDWYFNVWGAGTTVTVSSASTKGPSVFPLAPSSKSTSGGTAALGCLVKDYFPEPVTVSWNSGALTSGVHTFPAVLQSSGLYSLSSVVTVPSSSLGTQTYICNVNHKPSNTKVDKKVEPKSCDKTHTCPPCPAPERRRGPSVFLFPPKPKDTLMISRTPEVTCVVVDVSHEDPEVKFNWYVDGVEVHNAKTKPREEQYNSTYRVVSVLTVLHQDWLNGKEYKCKVSNKALPAPIEKTISKAKGQPREPQVYTLPPSRDELTKNQVSLTCLVKGFYPSDIAVEWESNGQPENNYKTTPPVLDSDGSFFLYSKLTVDKSRWQQGNVFSCSVMHEALHNHYTQKSLSLSPGK
# light: B1 light
# notes: EU numbering; also called 2-43; copies: 2 + 2
# B3: anti-CD20 (rituximab) human IgG1 G236R (antibody)
# heavy: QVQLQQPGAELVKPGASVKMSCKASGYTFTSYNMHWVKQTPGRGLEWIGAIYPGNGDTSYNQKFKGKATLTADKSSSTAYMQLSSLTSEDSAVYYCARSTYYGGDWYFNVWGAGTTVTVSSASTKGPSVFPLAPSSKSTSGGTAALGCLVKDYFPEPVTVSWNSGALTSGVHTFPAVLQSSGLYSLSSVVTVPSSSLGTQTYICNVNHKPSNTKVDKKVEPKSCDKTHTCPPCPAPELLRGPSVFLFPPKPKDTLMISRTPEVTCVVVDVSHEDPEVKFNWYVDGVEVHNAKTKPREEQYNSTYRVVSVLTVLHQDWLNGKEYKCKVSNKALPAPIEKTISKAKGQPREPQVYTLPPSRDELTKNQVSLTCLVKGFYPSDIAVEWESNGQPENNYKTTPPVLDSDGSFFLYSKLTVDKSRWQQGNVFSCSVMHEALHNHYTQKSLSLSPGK
# light: B1 light
# notes: EU numbering; also called 2-81; copies: 2 + 2
# B4: anti-CD20 (rituximab) human IgG1 L235A/G236R (antibody)
# heavy: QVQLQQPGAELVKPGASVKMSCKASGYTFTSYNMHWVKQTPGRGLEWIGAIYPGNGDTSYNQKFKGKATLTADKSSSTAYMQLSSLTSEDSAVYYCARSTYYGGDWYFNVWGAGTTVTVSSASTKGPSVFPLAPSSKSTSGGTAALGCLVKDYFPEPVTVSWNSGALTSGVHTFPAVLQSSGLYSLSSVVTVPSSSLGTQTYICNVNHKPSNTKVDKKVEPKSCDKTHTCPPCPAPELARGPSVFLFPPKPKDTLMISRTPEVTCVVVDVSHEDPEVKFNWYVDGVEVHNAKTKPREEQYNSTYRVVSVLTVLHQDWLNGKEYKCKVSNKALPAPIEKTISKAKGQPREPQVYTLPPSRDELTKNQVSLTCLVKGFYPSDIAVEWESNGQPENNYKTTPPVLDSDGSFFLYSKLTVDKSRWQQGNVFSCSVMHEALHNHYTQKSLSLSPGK
# light: B1 light
# notes: EU numbering; also called 2-79; copies: 2 + 2
# B5: anti-CD20 (rituximab) human IgG1 G236R/L328R (antibody)
# heavy: not shown
# light: B1 light
# notes: EU numbering; also called 2-68; copies: 2 + 2
# B6: anti-CD20 (rituximab) human IgG1 L234Q/L235S, sample 2-82 (antibody)
# heavy: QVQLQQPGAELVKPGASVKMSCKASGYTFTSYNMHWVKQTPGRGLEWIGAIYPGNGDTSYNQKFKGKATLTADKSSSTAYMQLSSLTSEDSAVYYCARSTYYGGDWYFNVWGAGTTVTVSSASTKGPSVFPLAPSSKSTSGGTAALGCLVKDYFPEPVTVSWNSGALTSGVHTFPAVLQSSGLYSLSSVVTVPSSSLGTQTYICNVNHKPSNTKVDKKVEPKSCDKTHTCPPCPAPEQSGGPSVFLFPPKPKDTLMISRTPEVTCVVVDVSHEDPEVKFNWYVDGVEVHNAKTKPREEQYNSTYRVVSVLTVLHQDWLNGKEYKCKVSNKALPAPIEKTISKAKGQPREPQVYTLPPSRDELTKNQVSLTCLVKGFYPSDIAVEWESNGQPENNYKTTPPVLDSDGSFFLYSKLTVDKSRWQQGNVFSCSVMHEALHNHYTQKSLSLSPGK
# light: B1 light
# notes: EU numbering; copies: 2 + 2
# B7: anti-CD20 (rituximab) human IgG1 L234Q/L235D/G236R (antibody)
# heavy: B2 heavy with R238Q, R239D
# light: B1 light
# notes: EU numbering; also called 2-28; copies: 2 + 2
# B8: anti-CD20 (rituximab) human IgG1 L235S/G236R (antibody)
# heavy: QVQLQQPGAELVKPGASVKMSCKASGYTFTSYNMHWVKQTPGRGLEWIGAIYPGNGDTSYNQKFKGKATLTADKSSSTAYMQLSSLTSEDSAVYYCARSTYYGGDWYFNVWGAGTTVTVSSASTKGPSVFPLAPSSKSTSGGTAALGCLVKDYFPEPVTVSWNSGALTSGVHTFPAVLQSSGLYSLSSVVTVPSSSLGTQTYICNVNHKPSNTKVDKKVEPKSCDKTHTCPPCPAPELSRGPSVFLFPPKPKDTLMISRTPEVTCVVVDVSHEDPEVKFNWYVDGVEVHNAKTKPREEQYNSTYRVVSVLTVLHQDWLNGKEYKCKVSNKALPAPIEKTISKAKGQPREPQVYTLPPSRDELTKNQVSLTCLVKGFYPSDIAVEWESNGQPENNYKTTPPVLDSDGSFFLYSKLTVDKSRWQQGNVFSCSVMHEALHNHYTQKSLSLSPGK
# light: B1 light
# notes: EU numbering; also called 2-80; copies: 2 + 2
# B9: anti-CD20 (rituximab) human IgG1 L235G/G236R (antibody)
# heavy: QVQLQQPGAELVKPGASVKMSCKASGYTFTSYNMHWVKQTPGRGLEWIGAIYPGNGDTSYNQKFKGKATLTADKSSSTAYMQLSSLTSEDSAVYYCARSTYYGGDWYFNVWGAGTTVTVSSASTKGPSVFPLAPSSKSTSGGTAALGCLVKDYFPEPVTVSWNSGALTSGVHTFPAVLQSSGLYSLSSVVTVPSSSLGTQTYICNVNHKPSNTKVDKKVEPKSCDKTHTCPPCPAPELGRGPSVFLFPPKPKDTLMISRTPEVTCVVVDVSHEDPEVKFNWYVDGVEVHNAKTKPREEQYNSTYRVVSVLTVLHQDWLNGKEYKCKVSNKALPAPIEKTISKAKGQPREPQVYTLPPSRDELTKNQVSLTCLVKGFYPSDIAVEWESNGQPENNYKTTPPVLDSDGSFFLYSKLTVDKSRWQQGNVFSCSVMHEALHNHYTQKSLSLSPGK
# light: B1 light
# notes: EU numbering; also called 2-83; copies: 2 + 2
# B10: anti-CD20 (rituximab) human IgG1 L234D/L235S/G236R (antibody)
# heavy: B2 heavy with R238D, R239S
# light: B1 light
# notes: EU numbering; also called 2-10; 1-29; copies: 2 + 2
# B11: anti-CD20 (rituximab) human IgG1 L234Q/L235R/G236R (antibody)
# heavy: B2 heavy with R238Q
# light: B1 light
# notes: EU numbering; also called 2-32; copies: 2 + 2
# B12: anti-CD52 (alemtuzumab) human IgG1 L234G/L235S/G236R (antibody)
# heavy: QVQLQESGPGLVRPSQTLSLTCTVSGFTFTDFYMNWVRQPPGRGLEWIGFIRDKAKGYTTEYNPSVKGRVTMLVDTSKNQFSLRLSSVTAADTAVYYCAREGHTAAPFDYWGQGSLVTVSSASTKGPSVFPLAPSSKSTSGGTAALGCLVKDYFPEPVTVSWNSGALTSGVHTFPAVLQSSGLYSLSSVVTVPSSSLGTQTYICNVNHKPSNTKVDKKVEPKSCDKTHTCPPCPAPEGSRGPSVFLFPPKPKDTLMISRTPEVTCVVVDVSHEDPEVKFNWYVDGVEVHNAKTKPREEQYNSTYRVVSVLTVLHQDWLNGKEYKCKVSNKALPAPIEKTISKAKGQPREPQVYTLPPSRDELTKNQVSLTCLVKGFYPSDIAVEWESNGQPENNYKTTPPVLDSDGSFFLYSKLTVDKSRWQQGNVFSCSVMHEALHNHYTQKSLSLSPGK
# light: not shown
# notes: EU numbering; also called 4-19; copies: 2 + 2
# B13: anti-CD52 (alemtuzumab) human IgG1 L234S/L235T/G236R (antibody)
# heavy: B12 heavy with G238S, S239T
# light: not shown
# notes: EU numbering; also called 4-52; copies: 2 + 2
# B14: anti-CD52 (alemtuzumab) human IgG1 L234S/L235V/G236R (antibody)
# heavy: B12 heavy with G238S, S239V
# light: not shown
# notes: EU numbering; also called 4-53; copies: 2 + 2
# B15: anti-CD52 (alemtuzumab) human IgG1 L234T/L235Q/G236R (antibody)
# heavy: B12 heavy with G238T, S239Q
# light: not shown
# notes: EU numbering; also called 4-60; copies: 2 + 2
# B16: anti-CD52 (alemtuzumab) human IgG1 N297Q (aglycosyl) (antibody)
# heavy: not shown
# light: not shown
# notes: EU numbering; also called 4-67; copies: 2 + 2
# B17: anti-CD20 (rituximab variable regions) mouse IgG2a L234Q/L235S/G236R (antibody)
# heavy: QVQLQQPGAELVKPGASVKMSCKASGYTFTSYNMHWVKQTPGRGLEWIGAIYPGNGDTSYNQKFKGKATLTADKSSSTAYMQLSSLTSEDSAVYYCARSTYYGGDWYFNVWGAGTTVTVSSAKTTAPSVYPLAPVCGDTTGSSVTLGCLVKGYFPEPVTLTWNSGSLSSGVHTFPAVLQSDLYTLSSSVTVTSSTWPSQSITCNVAHPASSTKVDKKIEPRGPTIKPCPPCKCPAPNQSRGPSVFIFPPKIKDVLMISLSPIVTCVVVDVSEDDPDVQISWFVNNVEVHTAQTQTHREDYNSTLRVVSALPIQHQDWMSGKEFKCKVNNKDLPAPIERTISKPKGSVRAPQVYVLPPPEEEMTKKQVTLTCMVTDFMPEDIYVEWTNNGKTELNYKNTEPVLDSDGSYFMYSKLRVEKKNWVERNSYSCSVVHEGLHNHHTTKSFSRTPGK
# light: QIVLSQSPAILSASPGEKVTMTCRASSSVSYIHWFQQKPGSSPKPWIYATSNLASGVPVRFSGSGSGTSYSLTISRVEAEDAATYYCQQWTSNPPTFGGGTKLEIKRADAAPTVSIFPPSSEQLTSGGASVVCFLNNFYPKDINVKWKIDGSERQNGVLNSWTDQDSKDSTYSMSSTLTLTKDEYERHNSYTCEATHKTSTSPIVKSFNRNEC
# notes: copies: 2 + 2
# Target: T2, human FcRn (R&D Systems Cat. No. 8639-Fc) (human, UniProt P55899 24-297; P61769 21-119)
# Test: SPR, FcRn captured; Mean
# Protocol: (§1) Binding to human FcRn was measured twice. As before the binding responses were corrected by subtraction of the response given by a blank sample consisting of running buffer alone.
# (§2) Further experiments were carried out to test a larger panel of variants for binding to human FcRn. Because of the comparatively large number of samples, it was necessary to correct for the effects of baseline drift and loss of binding capacity during the runs which required repeated regeneration of the Biacore® chip. A baseline correction was calculated by interpolating the response of two blank samples, one at the beginning and one at the end of the run, to determine an individual baseline correction for each cycle which was subtracted from the response of the sample run in that cycle.
# T2 sequence (P55899 24-297 limits assumed, chain 1 of 2): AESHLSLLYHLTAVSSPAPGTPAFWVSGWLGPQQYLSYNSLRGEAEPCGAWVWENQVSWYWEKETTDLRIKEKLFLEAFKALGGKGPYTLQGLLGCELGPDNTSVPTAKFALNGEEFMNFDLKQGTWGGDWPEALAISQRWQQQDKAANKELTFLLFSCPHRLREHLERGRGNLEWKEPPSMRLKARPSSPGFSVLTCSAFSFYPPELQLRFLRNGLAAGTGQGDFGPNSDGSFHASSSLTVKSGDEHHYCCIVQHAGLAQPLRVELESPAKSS
# T2 sequence (P61769 21-119 limits assumed, chain 2 of 2): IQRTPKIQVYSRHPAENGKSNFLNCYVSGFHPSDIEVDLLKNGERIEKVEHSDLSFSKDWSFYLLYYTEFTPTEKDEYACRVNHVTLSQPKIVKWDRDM
row,Binder,Corrected and normalised response (% of wild-type reference)
1,B1,93.5 % of wild-type reference
2,B2,108 % of wild-type reference

# Target: T2, human FcRn (R&D Systems Cat. No. …)
# Test: SPR, FcRn captured; Expt 1
row,Binder,Corrected and normalised response (% of wild-type reference)
1,B1,94.5 % of wild-type reference
2,B2,106 % of wild-type reference

# Target: T2, human FcRn (R&D Systems Cat. No. …)
# Test: SPR, FcRn captured; Expt 2
row,Binder,Corrected and normalised response (% of wild-type reference)
1,B1,93.4 % of wild-type reference
2,B2,108 % of wild-type reference

# Target: T2, human FcRn (R&D Systems Cat. No. …)
# Test: SPR, FcRn captured; Expt 3
# Protocol: as §1, §2
row,Binder,Corrected and normalised response (% of wild-type reference)
1,B1,92.8 % of wild-type reference
2,B2,108 % of wild-type reference

# Target: T2, human FcRn (R&D Systems Cat. No. …)
# Test: SPR, FcRn captured via anti-His, pH 6.0;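 further: SPR binding signal relative to the reference cell, corrected by subtracting the response of a blank sample of running buffer alone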
# Protocol: (§3) Between each cycle, the chip was regenerated by injection of 10 mM glycine pH 3.0 for 0.5 min at a flow rate of 30 μL/min and recharged with a fresh injection of FcγRI. At the beginning of each experiment, three blank cycles were run, with buffer alone being injected instead of test sample. The average SPR signal (relative to the reference cell) was measured in a window approximately 8 to 13 seconds before the injection of test sample (baseline) and approximately 3 to 8 seconds before the end of injection (response). The response of the third of the blank (buffer) samples was subtracted from the response of each test sample in order to allow for any dissociation of the bound FcγRI giving a corrected response for each test sample. The whole experiment was repeated three times with the test samples being analysed in different orders each time. […] This lot was run at the beginning and end of each experiment as a consistency check.
# as §1
row,Binder,Corrected response (RU)
1,B3,570 RU
2,B4,540 RU
3,B5,567 RU
4,B6,509 RU
5,B7,490 RU
6,B1,513 RU
7,B8,530 RU
8,B2,570 RU
9,B9,547 RU
10,B10,507 RU
11,B11,533 RU

# Target: T3, cynomolgus monkey FcRn (Sino Biological Cat. No. CT031-C08H) (cynomolgus monkey, UniProt Q8SPV9 24-297; Q8SPW0 21-119)
# T3 construct: Bought protein, captured on an anti-histidine chip; also called cynomolgus FcRn
# Test: SPR, FcRn captured via anti-His, pH 6.0;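 further: SPR binding signal relative to the reference cell, corrected by subtracting the response of a blank sample of running buffer alone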
# Protocol: as §3, §1
row,Binder,Corrected response (RU)
1,B3,1290 RU
2,B4,1240 RU
3,B5,1290 RU
4,B6,1170 RU
5,B7,1160 RU
6,B1,1220 RU
7,B8,1220 RU
8,B2,1300 RU
9,B9,1250 RU
10,B10,1200 RU
11,B11,1240 RU

# Target: T1, mouse FcRn (Sino Biological Cat. No. …)
# Test: SPR, FcRn captured via anti-His, pH 6.0;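 further: SPR binding signal relative to the reference cell, corrected by subtracting the response of a blank sample of running buffer alone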
# Protocol: as §3, §1
row,Binder,Corrected response (RU)
1,B3,173 RU
2,B4,168 RU
3,B5,206 RU
4,B6,142 RU
5,B7,170 RU
6,B1,154 RU
7,B8,189 RU
8,B2,181 RU
9,B9,146 RU
10,B10,145 RU
11,B11,180 RU

# Target: T4, Human C1q (Sigma Cat. No. 20476), HRP-labelled (human, UniProt P02745 23-245; P02746 28-253; P02747 29-245)
# T4 construct: Coupled to horse-radish peroxidase with Lightning-Link kit; also called HRP-labelled C1q
# Test: ELISA, antibody coated, HRP-C1q; Expt 1, buffer alone 0.061
# Protocol: (§4) Binding analysis was carried out by ELISA. All steps were carried out at room temperature (18 to 22° C.). Samples of purified antibodies comprising variant Fc regions were diluted to 10 μg/mL in PBS. Negative controls consisted of PBS alone. Replicates of 100 μL each were added to two 96-well clear Maxisorp microplates (Sigma Cat. No. M9410-ICS) and incubated with shaking for approximately 60 min. The plates were rinsed with PBS containing 0.05% (v/v) Tween 20 (wash buffer) and 200 μL block buffer was added. The plates were incubated with shaking for approximately 60 min and optionally stored overnight at 4° C., then rinsed with wash buffer. HRP-labelled C1q was diluted to 100 ng/mL in block buffer and 100 μL was added to each well. The plates were incubated with shaking for approximately 90 min then washed four times with wash buffer and twice with water. 100 μL of 3,3′,5,5′-tetramethylbenzidine liquid substrate, supersensitive (TMB) (Sigma Cat. No. T4444) was added and the plates were incubated with shaking for approximately 10 min. 50 μL of 1M sulphuric acid was added to stop the reaction and the absorbance was read at 450 nm with 620 nm subtraction using a microplate spectrophotometer (Anthos Labtec HT). The whole experiment was repeated three times using different selections of variant antibodies. In experiments 1 and 2, six replicates of each sample were tested (three on each plate) and in experiment 3, twelve replicates (six on each plate). Within each experiment, the mean absorbance for each sample was compared with the mean absorbance obtained with buffer alone using a one-tailed t-test, assuming unequal variances. The mean of the resulting probability (P) values was calculated.
row,Binder,Mean Absorbance
1,B1,0.048 absorbance (450 nm)
2,B2,0.029 absorbance (450 nm)

# Target: T4, Human C1q (Sigma Cat. No. 20476), …
# Test: ELISA, antibody coated, HRP-C1q; Expt 1, buffer alone 0.053
# Protocol: as §4
row,Binder,Mean Absorbance
1,B12,0.053 absorbance (450 nm)
2,B13,0.052 absorbance (450 nm)
3,B14,0.057 absorbance (450 nm)
4,B15,0.056 absorbance (450 nm)
5,B16,0.051 absorbance (450 nm)
6,B17,1.45 absorbance (450 nm)

# Target: T4, Human C1q (Sigma Cat. No. 20476), …
# Test: ELISA, antibody coated, HRP-C1q; Expt 2, buffer alone 0.051
# Protocol: as §4
row,Binder,Mean Absorbance
1,B12,0.056 absorbance (450 nm)
2,B13,0.053 absorbance (450 nm)
3,B14,0.059 absorbance (450 nm)
4,B15,0.052 absorbance (450 nm)
5,B16,0.044 absorbance (450 nm)
6,B17,0.953 absorbance (450 nm)
